# According to the nanobody polyreactivity screen of Harvey et al. (2022):
# Test: yeast display, Sf9 membrane polyspecificity reagent, FACS + sequencing; frameworks hold sequencing errors
# Procedure, shortened: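 Galactose-induced (36–48 hours) yeast carrying a synthetic nanobody display library were exposed to 10% biotinylated, detergent-solubilized Sf9 membrane reagent at 4 °C for 1 hour. FACS followed streptavidin microbead enrichment, using low and high (top ~1%) gates for expression (anti-HA) and reagent binding (streptavidin). Colony PCR, MiSeq 2 × 250 sequencing and CDR-length filtering followed. Labels for polyreactivity reflect the gate of origin.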
row,Sequence,polyreactivity (PSR sort gate)
1,QVQLVESGGGLVQAGGSLRLSCAASGSTFYINAMGWYRQAPGKERELVADITVRGGNTYYADSVKGRFTISRDNAKNTVYLQMNSLKPEDTAVYYCAADDWGFWYDYWGQGTQVTVSS,high polyreactivity
2,QVQLVESGGGLVQAGGSLRLICAASGFTIGPYAMGWSRQAPGKERELVAAITIRGGSTYADSVKGRFTISRDNAKNTVYFQMNSLKTEDTAVSYCATVRALEYNYWGQGTQVTVSS,low polyreactivity
3,QVQLVESGGGLVQAGGSLRLSCAASGFTFSTYTMGWYRQAPGKERELVAAIRRSGDSTYYADSVKGRFTISRDNAKNTVYLQMNSLKPEDTAVYYCNAVRYRFERFDYWGQGTQVTVSS,high polyreactivity
4,QVQLVESVGGLVQAGGSLRLSCAASGFTFSSNAMGWYRQAPGKERELVAAISGTGGSTYYSDSVKVRITISRDNAKNTFYLLMNRLKPDDKAVYYCARVYNFYTSGYDYWGKGTQVTVSS,high polyreactivity
5,QVQLVESGGGLVQAGGSLRLSCAASGSTFPVNAMGWYIQAPGKERELVARIRGSGGSTYYADSVKGRFTISRDNAKNTVYLQMNSLKPEDTAVYYCNADPVRSGLDYWGQGTQVTVSS,high polyreactivity
6,QVQLVESGGGLVQAGGSLRLSCAASGSIFRGYAMGWYRQAPGTERELVAAITSSAGSTYYADSVKGRFTISRDNAKNTVYLQMNSLKPEDSAVYYCNKYPRASRRGFDYWGQGTQVTVSS,high polyreactivity
7,QVQLQESGSGLVQAGGSLRLSCAASGYISLGDNMGWYRQAPGKDREFGATISVGGITYYVDSVKGRFTISRDIAKNTVYLQMNSLTPEDTAVYYCAALEIYYFRYYYWGQGTQVTVSS,low polyreactivity
8,QVQLVESGGGLVQAGGSLRLSCAASGSTFYPYAMGWYRQAPGNERELVAAITGTGGSTYYADSVKGRFTISRDNAKNTVYLQMNSLKPEDTAVYYCATRRRYYYSRYNYWGQGTQVTVSS,high polyreactivity
9,QVQLVESGGGLVQAGGSLRLSCAASGSTFDSNVIGWYRQAPGKERELVAAITWSGGSTYYADSVKGRFTISRDNAKNTVYLQMNSLKPEDTAVYYCAARHYPRYGNRRMYYWGQGTQVTVSS,high polyreactivity
10,QVQLVESGGGLVQAGGSLRLSCAASGFTFYRNAMGWYRKAPGKERELVAAISWSGDSTYYADSVKGRFTISRDNAKNTVYLQMNSLKPEDTAVYYCAKSRYTALTNHWSHDYWGQGTQVTVSS,low polyreactivity
11,QVQLLESGGGLVQAGGSLRLSCAASGSTFYCYTMGWYRQAPGKERELVARISSSGSTNYADSVKGRFTISRDNAKNTVYLQMNSLKPEDTAVYYCNKDWIYRGYDYWGQGTQVTVSS,high polyreactivity
12,QVQLVESGGGLVQAGGSLRLSCAASGGTFQYYTMGWYRQAPGKERELVAGISSGGSTYYADSVKGRFTISRDNAKNTVYLQMNSLKPEDTAVYYCNAVSRRKTYGYRIIKYDYWGQGTQVTVSS,high polyreactivity
13,QVQLVESGGGLVQAGGSLRLSCAASGLTFTGYAMGWYRQAPGKERELVAAISSRGGSTYYADSVKGRFTISRDNAKNTVYLQMNSLKPEDTAVYYCAARASSGARGLDYWGQGTQVTVSS,high polyreactivity
14,QVQLVESGGGLVQAGGSLRLSCAASGITFQDNAIGSNRQAPGKERELVAAISTGSTNYADSVKGRFTISRDNAKNTVYLQMKSLKPDDTAVYYCAALGQYQTVYSDGYDYYYWGQGTQVTVSS,low polyreactivity
15,QVQLVESGGGLVQAGGSLRISCAASGSTFRRYAMGWYRQAPGKEREFVAVITSSGVITYYADSVKGRFTISRDNAKNTVYLQMNSLKPEDTAVYYCATDARSMDYWGQGTQVTVSS,low polyreactivity
16,QLQLVESGGGLVQAGGSLRLSCAASGTIFDTYAMGWSRQAPGKEMELVAAIRWTGGSTYYADSVKGRFTISRENAKNTVYFQMNSLKPEDTAVYYCAATWYYHYNDWKPWFEYGYWGQGTQVTVSS,low polyreactivity

row,Sequence,polyreactivity (PSR sort gate)
1,QVQLVESGGGLVQAGGSLRLSCAASGSTFSINAMGWYRPAPGKERELVAAITWRGTRTYYADSVKGRFTISRDNAKNTVYLQMNSLKPEDTAVYYCAATGSGQSSYYYWGQGTQVTVSS,high polyreactivity
2,QVQLVESGGGLVQAGRSHRLSCAASGSIFPVYVMGWYRQAPGKERELVAAISQSSGGTYYADSVKGRFTISRDNATITVYLQMNSLKPEDTAVYYCAARITAIQGQRYYWGQGTQVTVSS,high polyreactivity
3,QVQLVESGGGLVQAGGSLRLSCAASGFIFTRNRMGWYRHAPGKETELVAAISSGGRTYYADSVKGRFTISRDNAMNTVYLQMNSLIPEDTAVYYCNAGNRGVYRYDYWGQGTQVNVSS,high polyreactivity
4,QVQLVESGGALVQAGGSLLLSCAASGSIFQPYAMGWYRQAPGKERELVAAITNGGSTYYADSVKGRFTISRDNAKNTVYLQMNSLNPEDTAVYYFAADVQSSHVYDYWGQGTQVTVSS,low polyreactivity
5,QVQLVESGGGLVQAGGSLRLSCAASGRILTFYGLGWYRQAPGKERELVAAISNGGSTYYADSVKGRFTISRDNAKNTVYLQMNSLKPEDTAVYYCAKRILTAPRRNSGYDYWGQGTQVTVSS,low polyreactivity
6,QVQLVESGGGLVQAGGSLRLSCAASGSIFAVYAMGWYRQAPGKERELVAVITRSGGSTYYADSVKGRFTISRDNAKNTVYLQMNTLKPEDTADYYCAARTGYGYTRYEYWGQGTQVTVSS,high polyreactivity
7,QVQLVESGGGLVQAGGSLRLSCAASGSIFGPNSMGWYRQAPGKERELVAAISWTGGRTYYADSVKGRFTISRDNAKNTVYLQMNSLKPEDTAVYYCAVKGHPWGQGTQVTVSS,low polyreactivity
8,QVHLVESGGGLVQAGGSLRLSCAASGFIFWENGMGWYRQAPGKERELVAAISSGGGRTYYADSVKGLFTISRDNAKNTVYLQMNSLKPEDTAFYYCNRARYYREFDYWGQGTQVTVSS,high polyreactivity
9,QVQLVESGGGLFQAGGSLRLSCAASGITFAQYAMGWYRQAPGKDRELVAVISSGGSTNYADSVKGRFTISRDNAKNTVYLQMNSMKPEDTAVYYCNADEAAPVYSYYYWGQGTQVTVSS,low polyreactivity
10,QVQLVESGGGLVQAGGSLRLSCAASGLIFVDNAMGWYRQAPGKERELVAAIDSGGSTNYADSVKGRFTISRDNAKNTVYLQMNSLKPEDTAVYYCAADWIYAPWYYQESVEYYYWGQGTQVTVSS,low polyreactivity
11,QVQLVESGGGLVQAGGSLRLSCAASGSIFTTYAMGWSRQAPGKERELVAAITTSGGRTYYADSVKGRFTISRDNAKNTVYLQMNSLKPDDTAVYYCNAVRGGRYGLDYWGQGTQVTVSS,high polyreactivity
12,QVQLVESGGGLVQAGGSLRLSCAASGSIFRFYVMGWYRPAPGKERELVAAISIGGSTNYADSVKGRFTISRDNAKNTVYLQMNSLKPEDTAVYYCAADYWYGAVLPHGTEFDYWGQGTQVTVSS,low polyreactivity
13,QVQLVESGGGLVQAGGSLRLSCAASGSIFYQNVMGGYRQAPGKERELVAAISSSGDSTYYADSVKGRFTISRDNAKNTVYLQMNSLKPEDTAVYYCAAEPEYVSGPYDYWGQGTQVTVSS,low polyreactivity
14,QVQLVESGGGLVQAGGSLRLSCAASGRIFRFYAMGWYRQAPGKERELVADISRRGGSTYYADSVKGRFTISRDNAKNTVYLQMNSLKPEDTAVYYCNARWYRTGSTYHEDYWGQGTQVTVSS,high polyreactivity
15,QVQLVETGRGLVQAGGSLRISCAPCGFTFWRNAMGGYRQAPGKERELVAAINWSGGSPYYADSVKGRFTISRDNAMNTVYLQINSRKADDTAVYYCNRRGQYTFWPIHEYWGQGTQVTVSS,high polyreactivity
16,QVQLVESGGGLVQAGGSLRLSCAASGITLHHNAMGWYRQAPGKERELVAAITSNGGSTYYADSVKGRFTISRDNAKNTVYLQMNSLKPEDTAVYYCARDSKRLARYYYWGQGTQVTVSS,low polyreactivity
